# Experimental data: patent publication US20210170043A1, “DC-SIGN ANTIBODY CONJUGATES COMPRISING STING AGONISTS” (NOVARTIS AG, priority 2018, published 2021)
# Where a chain is given by its changes, count along the chain named. Names and notes keep the numbering of the source.
# T1: human DC-SIGN (Homo sapiens, UniProt Q9NNX6)
# T1 construct: expressed in transfected cells
# T1 sequence (Q9NNX6 1-404): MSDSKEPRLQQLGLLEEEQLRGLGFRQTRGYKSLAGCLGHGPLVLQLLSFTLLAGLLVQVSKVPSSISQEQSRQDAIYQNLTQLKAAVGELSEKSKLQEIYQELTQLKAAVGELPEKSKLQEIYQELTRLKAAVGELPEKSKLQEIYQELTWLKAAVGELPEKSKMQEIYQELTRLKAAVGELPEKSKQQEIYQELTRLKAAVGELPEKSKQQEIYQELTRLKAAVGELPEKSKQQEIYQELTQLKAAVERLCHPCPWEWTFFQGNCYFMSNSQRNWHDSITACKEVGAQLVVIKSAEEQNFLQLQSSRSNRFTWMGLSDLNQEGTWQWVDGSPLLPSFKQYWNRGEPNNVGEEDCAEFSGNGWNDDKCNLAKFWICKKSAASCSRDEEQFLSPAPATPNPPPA
# T2: human L-SIGN (Homo sapiens, UniProt Q9H2X3)
# T2 construct: expressed in transfected cells; host or cells: K562, retroviral transduction
# T2 sequence (Q9H2X3 1-399): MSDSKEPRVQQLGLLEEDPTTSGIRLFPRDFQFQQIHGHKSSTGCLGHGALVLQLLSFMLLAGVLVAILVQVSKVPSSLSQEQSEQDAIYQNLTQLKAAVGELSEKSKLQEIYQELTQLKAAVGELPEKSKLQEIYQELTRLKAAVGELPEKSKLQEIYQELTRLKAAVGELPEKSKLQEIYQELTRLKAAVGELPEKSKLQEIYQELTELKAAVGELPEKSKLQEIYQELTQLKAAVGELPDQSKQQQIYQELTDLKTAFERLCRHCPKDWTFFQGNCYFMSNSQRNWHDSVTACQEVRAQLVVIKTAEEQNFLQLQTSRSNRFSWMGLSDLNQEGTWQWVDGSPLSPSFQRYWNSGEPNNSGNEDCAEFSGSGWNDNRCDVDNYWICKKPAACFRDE
# B1: 952P16 N92Q: optimization of sequences by removal of post-translational modifications, non-preferred sites; substitutions made by site directed mutagenesis (antibody)
# heavy: QVTLRESGPALVKPTQTLTLTCTFSGFSLSTSGVSVSWIRQPPGKALEWLALIDWDDDKYYSTSLKTRLTISKDTSKNQVVLTMTNMDPVDTATYYCARTPSGSYGRYFDLWGRGTLVTVSSASTKGPSVFPLAPSSKSTSGGTAALGCLVKDYFPCPVTVSWNSGALTSGVHTFPAVLQSSGLYSLSSVVTVPSSSLGTQTYICNVNHKPSNTKVDKRVEPKSCDKTHTCPPCPAPELLGGPSVFLFPPKPKDTLMISRTPEVTCVVVAVSHEDPEVKFNWYVDGVEVHNAKTKPREEQYNSTYRVVSVLTVLHQDWLNGKEYKCKVSNKALAAPIEKTISKAKGQPREPQVYTLPPSREEMTKNQVSLTCLVKGFYPCDIAVEWESNGQPENNYKTTPPVLDSDGSFFLYSKLTVDKSRWQQGNVFSCSVMHEALHNHYTQKSLSLSPGK
# light: DIQMTQSPSTLSASVGDRVTITCRASQSISNWLAWYQQKPGKAPKLLIYKASSLESGVPSRFSGSGSGTEFTLTISSLQPDDFATYYCQQYQSYWTFGQGTKVEIKRTVAAPSVFIFPPSDEQLKSGTASVVCLLNNFYPREAKVQWKVDNALQSGNSQESVTEQDSKDSTYSLSSTLTLSKADYEKHKVYACEVTHQGLSSPVTKSFNRGEC
# B2: 960K03 N92S: optimization of sequences by removal of post-translational modifications, non-preferred sites; substitutions made by site directed mutagenesis (antibody)
# heavy: QVTLRESGPALVKPTQTLTLTCTFSGFSLSTGGMSVSWIRQPPGKALEWLALIDWDDDKYYSTSLKTRLTISKDTSKNQLVLTMTNMDPVDTATYYCARAHSGSYFDFWGQGTLVTVSSASTKGPSVFPLAPSSKSTSGGTAALGCLVKDYFPCPVTVSWNSGALTSGVHTFPAVLQSSGLYSLSSVVTVPSSSLGTQTYICNVNHKPSNTKVDKRVEPKSCDKTHTCPPCPAPELLGGPSVFLFPPKPKDTLMISRTPEVTCVVVAVSHEDPEVKFNWYVDGVEVHNAKTKPREEQYNSTYRVVSVLTVLHQDWLNGKEYKCKVSNKALAAPIEKTISKAKGQPREPQVYTLPPSREEMTKNQVSLTCLVKGFYPCDIAVEWESNGQPENNYKTTPPVLDSDGSFFLYSKLTVDKSRWQQGNVFSCSVMHEALHNHYTQKSLSLSPGK
# light: B1 light with S28R, Y91F, Q92S
# B3: 952G04 N92Q: optimization of sequences by removal of post-translational modifications, non-preferred sites; substitutions made by site directed mutagenesis (antibody)
# heavy: B1 heavy with S37T, T70A
# light: B1 light with N31T, K50E
# B4: 1G12 Hz: humanized VL and VH domains of antibody 1G12 (antibody)
# heavy: QVQLQESGPGLVKPSETLSLTCTVSGFSLTNYGVHWIRQPPGKGLEWIGVIWRGESTDYNAAFMSRVTISKDDSKSQVSLKLSSVTAADTAVYYCARNGGSSGWYFDVWGQGTTVTVSSASTKGPSVFPLAPSSKSTSGGTAALGCLVKDYFPCPVTVSWNSGALTSGVHTFPAVLQSSGLYSLSSVVTVPSSSLGTQTYICNVNHKPSNTKVDKRVEPKSCDKTHTCPPCPAPELLGGPSVFLFPPKPKDTLMISRTPEVTCVVVAVSHEDPEVKFNWYVDGVEVHNAKTKPREEQYNSTYRVVSVLTVLHQDWLNGKEYKCKVSNKALAAPIEKTISKAKGQPREPQVYTLPPSREEMTKNQVSLTCLVKGFYPCDIAVEWESNGQPENNYKTTPPVLDSDGSFFLYSKLTVDKSRWQQGNVFSCSVMHEALHNHYTQKSLSLSPGK
# light: DIQLTQSPSFLSASVGDRVTITCKASQDVTSAVAWYQQKPGKAPKLLIYWTSTRHTGVPSRFSGSGSGTEYTLTISSLQPEDFATYYCQQHYTTPLTFGQGTKLEIKRTVAAPSVFIFPPSDEQLKSGTASVVCLLNNFYPREAKVQWKVDNALQSGNSQESVTEQDSKDSTYSLSSTLTLSKADYEKHKVYACEVTHQGLSSPVTKSFNRGEC
# B5: 2B2 Chimeric: chimeric antibody chains comprising a murine variable region and human constant region (antibody)
# heavy: EVQLQQSGAELVRPGSSVKMSCKTSGYTFTNYGINWVKQRPGQGLEWIGYIYIGNDYTEYNERFKGKATLTSDTSSSTAHIQLNSLTSEDSAIYFCARLYYGSSLYSYAMDYWGQGTSVTVSSASTKGPSVFPLAPSSKSTSGGTAALGCLVKDYFPCPVTVSWNSGALTSGVHTFPAVLQSSGLYSLSSVVTVPSSSLGTQTYICNVNHKPSNTKVDKRVEPKSCDKTHTCPPCPAPELLGGPSVFLFPPKPKDTLMISRTPEVTCVVVAVSHEDPEVKFNWYVDGVEVHNAKTKPREEQYNSTYRVVSVLTVLHQDWLNGKEYKCKVSNKALAAPIEKTISKAKGQPREPQVYTLPPSREEMTKNQVSLTCLVKGFYPCDIAVEWESNGQPENNYKTTPPVLDSDGSFFLYSKLTVDKSRWQQGNVFSCSVMHEALHNHYTQKSLSLSPGK
# light: DIVMTQAAPSVSVTPGESVSISCRSSKSLLHSSGNTYLYWFLQRPGQSPQLLISRMSNLASGVPDRFSGSGSGTAFTLRISRVEAEDVGVYYCMQHLEYPYTFGGGTKLELKRTVAAPSVFIFPPSDEQLKSGTASVVCLLNNFYPREAKVQWKVDNALQSGNSQESVTEQDSKDSTYSLSSTLTLSKADYEKHKVYACEVTHQGLSSPVTKSFNRGEC
# Assays:
# human DC-SIGN [1] = target: T1, human DC-SIGN; assay: FACS binding to K562 cells expressing human DC-SIGN; conditions: FACS MFI
# Description: (§1) The affinity of various antibodies and ADCs to DC-SIGN and its species orthologues was determined using FACS. Purified IgGs were titrated to determine EC50 values for binding to cell surface expressed DC-SIGN.
# (§2) For this purpose, human DC-SIGN expressing or cynomolgus monkey DC-SIGN expressing stable CHO cell lines or K562 expressing DC-SIGN or K562 expressing L-SIGN cell lines were checked for density and viability using VICELL (Beckman Coulter), and washed once with 4° C. PBS. Cells were stained with DAPI (0.5 ug/mL) diluted in PBS for 30 min on ice. Cells were diluted into 4° C. FACS buffer (PBS, 10 mM EDTA, 2% FBS). 125 μl of cells were seeded (10,000 cells/well) into 96-well v-bottom plates (Nunc cat#442587) and centrifuged for 4 min at 1500 rpm at 4° C. Supernatant was removed. Cells were incubated with a serial dilution of each anti-DC-SIGN antibody in FACS buffer at concentrations ranging across several logs with a top concentration no higher than 50 μg/mL for 60 minutes at 4° C. Following incubation, cells were spun down (1500 rpm, 4 min, 4° C.) and washed two times with FACS buffer. A fluorophore-conjugated anti-hFc gamma-AF-647 (Southern Biotechnology) detection antibody was added at 1:400 and samples were incubated for 1 h on ice in the dark. Following incubation, FACS buffer was added, and the cells were spun down (1500 rpm, 4 min, 4° C.) and washed two times with FACS buffer. After the final wash, cells were resuspended in Fixative Buffer (Biolegend, 420801) and 90 μl of FACS buffer followed by readout on the flow cytometry machine (BD LSRFortessa Cell Analyzer; Cat #647177). Geometric Mean fluorescence intensity (MFI) of live, single cells was calculated in Flowjo 10.4.2 and exported into Graphpad Prism7 for EC50 determination.
# human L-SIGN = target: T2, human L-SIGN; assay: FACS binding to K562 cells expressing human L-SIGN (selectivity); conditions: FACS MFI
# Description: as §1, §2
# Selectivity was assessed by measuring apparent binding affinities to isogenic cell pairs engineered to overexpress DC-SIGN as well as cell lines expressing DC-SIGN paralog L-SIGN.
# human DC-SIGN [2] = target: T1, human DC-SIGN; assay: FACS binding to CHO cells stably expressing human DC-SIGN; conditions: FACS MFI, average
# Description: as §1, §2
# [3] = system: cynomolgus monkey DC-SIGN; assay: FACS binding to CHO cells stably expressing cynomolgus monkey DC-SIGN; conditions: FACS MFI, average
# Description: as §1, §2
# In a similar experiment the antibodies were tested for cross-reactivity using engineered isogenic matched cell line.
# cynomolgus monkey DC-SIGN, sequence (as listed by the source): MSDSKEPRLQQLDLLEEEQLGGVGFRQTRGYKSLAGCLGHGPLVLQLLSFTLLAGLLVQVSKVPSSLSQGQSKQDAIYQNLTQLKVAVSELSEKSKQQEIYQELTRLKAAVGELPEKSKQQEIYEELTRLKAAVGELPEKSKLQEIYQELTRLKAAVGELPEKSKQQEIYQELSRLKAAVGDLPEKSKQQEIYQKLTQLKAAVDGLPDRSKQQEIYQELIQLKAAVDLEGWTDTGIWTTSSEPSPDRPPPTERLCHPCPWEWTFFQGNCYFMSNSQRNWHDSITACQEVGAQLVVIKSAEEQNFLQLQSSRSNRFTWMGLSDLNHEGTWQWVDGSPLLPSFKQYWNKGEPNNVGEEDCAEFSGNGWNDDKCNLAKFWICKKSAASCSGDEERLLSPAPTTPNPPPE
Molecule,human DC-SIGN K562 EC50 (human DC-SIGN [1]),human L-SIGN K562 EC50 (human L-SIGN),human DC-SIGN CHO EC50 (ug/mL) ave. (human DC-SIGN [2]),cyno DC-SIGN CHO EC50 (ug/mL) ave. [3]
B1,0.024 µg/mL,>10 µg/mL,–,–
B2,0.049 µg/mL,–,0.06 µg/mL,0.08 µg/mL
B3,0.017 µg/mL,>10 µg/mL,0.07 µg/mL,0.02 µg/mL
B4,0.021 µg/mL,>10 µg/mL,0.07 µg/mL,0.06 µg/mL
B5,–,>10 µg/mL,–,–
